Measured values taken from patent publication US20210032352A1 (ANTERA THERAPEUTICS, published 2021).

Legend:
Experiment in all cases: kinetic table (called BLI in paragraph 35); quantity name and unit not printed in the table: KD in M follows from FIG. 12A
[1] = molecular target: T1, human LRP6 ECD, Fc-tagged (human, UniProt O75581 20-1370)
T1 construct: extracellular domain; Bought; also called LRP co-receptor; not shown: Fc tag of the purchased fusion
T1 sequence (looked up): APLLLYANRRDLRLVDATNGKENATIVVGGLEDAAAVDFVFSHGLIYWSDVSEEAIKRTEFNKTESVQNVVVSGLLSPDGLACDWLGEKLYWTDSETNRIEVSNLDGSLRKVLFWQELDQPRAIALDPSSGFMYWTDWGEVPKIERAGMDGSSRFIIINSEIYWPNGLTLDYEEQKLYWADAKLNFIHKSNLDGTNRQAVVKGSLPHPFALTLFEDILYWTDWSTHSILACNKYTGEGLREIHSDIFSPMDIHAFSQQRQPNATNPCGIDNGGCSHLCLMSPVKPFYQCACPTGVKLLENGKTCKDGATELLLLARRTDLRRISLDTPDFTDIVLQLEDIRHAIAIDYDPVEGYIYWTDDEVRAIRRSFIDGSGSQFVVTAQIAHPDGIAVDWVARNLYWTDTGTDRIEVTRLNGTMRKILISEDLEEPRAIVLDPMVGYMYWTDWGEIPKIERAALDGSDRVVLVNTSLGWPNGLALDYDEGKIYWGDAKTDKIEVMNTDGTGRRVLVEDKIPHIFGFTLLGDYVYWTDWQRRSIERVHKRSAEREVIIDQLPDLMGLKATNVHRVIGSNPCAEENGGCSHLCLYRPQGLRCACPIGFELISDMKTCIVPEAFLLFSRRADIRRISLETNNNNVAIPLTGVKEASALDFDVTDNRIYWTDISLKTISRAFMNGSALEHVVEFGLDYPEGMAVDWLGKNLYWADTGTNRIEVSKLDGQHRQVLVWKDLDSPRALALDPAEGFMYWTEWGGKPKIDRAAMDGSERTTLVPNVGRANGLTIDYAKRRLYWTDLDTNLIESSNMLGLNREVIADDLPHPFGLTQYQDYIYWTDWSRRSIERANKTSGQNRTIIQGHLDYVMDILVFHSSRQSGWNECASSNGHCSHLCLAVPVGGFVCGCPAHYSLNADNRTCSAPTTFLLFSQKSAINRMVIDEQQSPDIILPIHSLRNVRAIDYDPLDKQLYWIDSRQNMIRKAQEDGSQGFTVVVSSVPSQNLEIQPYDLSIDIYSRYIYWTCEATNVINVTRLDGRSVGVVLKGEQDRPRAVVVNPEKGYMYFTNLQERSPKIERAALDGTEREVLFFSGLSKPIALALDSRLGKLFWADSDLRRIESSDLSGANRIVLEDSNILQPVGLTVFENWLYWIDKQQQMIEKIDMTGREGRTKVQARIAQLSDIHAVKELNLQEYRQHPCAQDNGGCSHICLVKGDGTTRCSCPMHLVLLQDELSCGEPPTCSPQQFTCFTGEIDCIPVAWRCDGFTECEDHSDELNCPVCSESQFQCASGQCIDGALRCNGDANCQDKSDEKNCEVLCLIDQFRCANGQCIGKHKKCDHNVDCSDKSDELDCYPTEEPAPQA

[2] = molecular target: T2, FZD1 CRD, Fc-tagged (human, UniProt Q9UP38 70-250)
T2 construct: domain: CRD; Bought; not shown: Fc tag of the purchased fusion

[3] = molecular target: T3, FZD2 CRD, Fc-tagged (human, UniProt Q14332 24-190)
T3 construct: domain: CRD; Bought; not shown: Fc tag of the purchased fusion

[4] = molecular target: FZD7 CRD, Fc-tagged (human, UniProt O75084 33-185)

T2 sequence (Q9UP38 70-250): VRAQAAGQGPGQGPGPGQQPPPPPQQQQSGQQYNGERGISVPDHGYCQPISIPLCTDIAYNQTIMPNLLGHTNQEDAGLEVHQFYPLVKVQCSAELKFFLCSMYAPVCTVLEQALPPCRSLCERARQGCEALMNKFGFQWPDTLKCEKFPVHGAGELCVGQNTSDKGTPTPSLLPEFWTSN

B1: F^P*+P*-L6^1*+3* (bispecific antibody)
chain 1: DIQMTQSPSSLSASVGDRVTITCRASQSVSSAVAWYQQKPGKAPKLLIYSASSLYSGVPSRFSGSRSGTDFTLTISSLQPEDFATYYCQQGVYLFTFGQGTKVEIKGTTAASGSSGGSSSGAEVQLVESGGGLVQPGGSLRLSCAASGFNIGSSSIHWVRQAPGKGLEWVASIYSAFASTSYADSVKGRFTISADTSKNTAYLQMNSLRAEDTAVYYCARYHFPFGFALDYWGQGTLVTVSSLEDKTHTKVEPKTSDKTHTCPPCPAPELLGGPSVFLFPPKPKDTLMISRTPEVTCVVVDVSHEDPEVKFNWYVDGVEVHNAKTKPREEQYNSTYRVVSVLTVLHQDWLNGKEYKCKVSNKALPAPIEKTISKAKGQPREPMVFDLPPSREEMTKNQVSLWCMVKGFYPSDIAVEWESNGQPENNYKTTPPVLDSDGSFFLYSKLTVDKSRWQQGNVFSCSVMHEALHNHYTQKSLSLSPGKSGSETPGTSESATPESGGGDIQMTQSPSSLSASVGDRVTITCRASQSVSSAVAWYQQKPGKAPKLLIYSASSLYSGVPSRFSGSRSGTDFTLTISSLQPEDFATYYCQQYSWGPFTFGQGTKVEIKGTTAASGSSGGSSSGAEVQLVESGGGLVQPGGSLRLSCAASGFNISYSSIHWVRQAPGKGLEWVAYISSYYGYTYYADSVKGRFTISADTSKNTAYLQMNSLRAEDTAVYYCARAHYFPWAGAMDYWGQGTLVTVSS
chain 2: DIQMTQSPSSLSASVGDRVTITCRASQSVSSAVAWYQQKPGKAPKLLIYSASSLYSGVPSRFSGSRSGTDFTLTISSLQPEDFATYYCQQGVYLFTFGQGTKVEIKGTTAASGSSGGSSSGAEVQLVESGGGLVQPGGSLRLSCAASGFNIGSSSIHWVRQAPGKGLEWVASIYSAFASTSYADSVKGRFTISADTSKNTAYLQMNSLRAEDTAVYYCARYHFPFGFALDYWGQGTLVTVSSLEDKTHTKVEPKSSDKTHNCPPCPAPELLGGPSVFLFPPKPKDTLMISRTPEVTCVVVDVSHEDPEVKFNWYVDGVEVHNAKTKPREEQYNSTYRVVSVLTVLHQDWLNGKEYKCKVSNKALPAPIEKTISKAKGQPREPQVYTLPPIRELMTSNQVSLSCAVKGFYPSDIAVEWESNGQPENNYKTTPPVLDSDGSFFLVSKLTVDKSRWQQGNVFSCSVMHEALHNHYTQKSLSLSPGKSGSETPGTSESATPESGGGDIQMTQSPSSLSASVGDRVTITCRASQSVSSAVAWYQQKPGKAPKLLIYSASSLYSGVPSRFSGSRSGTDFTLTISSLQPEDFATYYCQQYYWPITFGQGTKVEIKGTTAASGSSGGSSSGAEVQLVESGGGLVQPGGSLRLSCAASGFNISSYYIHWVRQAPGKGLEWVASIYSSYGYTSYADSVKGRFTISADTSKNTAYLQMNSLRAEDTAVYYCARTVRGSKKPYFSGWAMDYWGQGTLVTVSS
- Kd [1]: 9.7 nM
- Kd [2]: 0.13 nM
- Kd [3]: 0.15 nM
- Kd [4]: 0.1 nM
